Laboratory results taken from patent US9201073B2, “Methods and compositions for enhancing proteasome activity” (President and Fellows of Harvard College, priority 2007, dated 2015).

T1: proteasome (Saccharomyces cerevisiae, UniProt P43593)
T1 sequence (P43593 1-499): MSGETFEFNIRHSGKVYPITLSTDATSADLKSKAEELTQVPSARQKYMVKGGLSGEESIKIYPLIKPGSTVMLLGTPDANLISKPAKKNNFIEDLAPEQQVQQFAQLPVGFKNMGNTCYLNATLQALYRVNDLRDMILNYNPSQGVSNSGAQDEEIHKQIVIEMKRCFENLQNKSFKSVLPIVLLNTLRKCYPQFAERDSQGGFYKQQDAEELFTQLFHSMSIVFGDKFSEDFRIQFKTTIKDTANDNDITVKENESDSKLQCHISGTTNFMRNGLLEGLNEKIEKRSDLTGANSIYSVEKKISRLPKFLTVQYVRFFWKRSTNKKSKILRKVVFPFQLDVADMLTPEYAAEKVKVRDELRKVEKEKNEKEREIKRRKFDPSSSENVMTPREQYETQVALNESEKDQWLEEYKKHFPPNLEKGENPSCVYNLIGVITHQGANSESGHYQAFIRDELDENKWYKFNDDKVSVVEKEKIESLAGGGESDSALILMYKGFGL


Assays:
26S human proteasomes = target: T2, 26S human proteasomes (Homo sapiens, UniProt O00487); test: In vitro Ubn-cyclin B1 degradation assay with human proteasomes; type: biochemical; conditions: 4 nM human proteasomes, about 30 nM ubiquitinated cyclin B, Usp14 60 nM preincubated 5 min
T2 construct: HTBH (C); made in house; complex purified from it
Experimental: A stable 293 cell line expressing hRpn11-HTBH was used. Human proteasomes were purified as previously described with some modifications (Wang X and Huang L (2007) Identifying dynamic interactors of protein complexes by quantitative mass spectrometry. Mol Cell Proteomics. 2008 January; 7(1):46-57. Epub 2007 Oct. 12.
Assays were performed in proteasome preparation buffer (50 mM Tris [pH 7.5], 5 mM MgCl2, and 5 mM ATP) at ambient temperature for the indicated times. The 26S human proteasomes (4 nM) were incubated with approximately 30 nM of Ub-conjugated cyclin B1 as substrates. Cyclin was ubiquitinated using purified APC ubiquitin ligase. Where indicated, a 15-fold molar access of recombinant Usp14 over proteasomes were preincubated prior to adding Ubn-cyclin B1.
In the study shown in FIG. 14, 4 nM of human proteasomes were incubated with approximately 30 nM of ubiquitinated cyclin B in buffer (50 mM Tris [pH 7.5], 5 mM MgCl2, and 5 mM ATP). Where indicated, 15-fold molar access of Usp14 over proteasome (60 nM) was preincubated for 5 min before initiating degradation reactions. Ubiquitinated cyclin B was added at time zero. SDS-sample buffer was added to stop the reaction at the indicated time. Usp14 CA is a variant of Usp14 with a single amino acid substitution that eliminates the active site nucleophile of the enzyme (a cysteine to alanine replacement). […]

ubp6Δ proteasomes [1] = target: T3, ubp6Δ proteasomes (Saccharomyces cerevisiae, UniProt P30656+P43588); test: In vitro ub-cyclin B deubiquitination/degradation assay with purified yeast proteasomes; type: biochemical; conditions: ubp6Δ proteasomes 135 nM; recombinant Ubp6 or Usp14 species 540 nM, Ubl and Ubl-MBP 1.35 μM, preincubated 5 min; immunoblot
T3 construct: proteasomes purified from ubp6Δ mutants; TEV-ProA (TEV site + protein A), chromosomally integrated (C); made in house
Experimental: Proteasomes (135 nM) were incubated with ub-cyclin Bin the presence of 1 mM ATP and buffer (50 mM Tris [pH 7.51, 1 mM EDTA, 5 mM MgCl2) for the indicated times. Reactions were terminated by the addition of 5×SDS Laemmli loading buffer (Leggett, et al. (2002). Multiple associated proteins regulate proteasome structure and function. Mol. Cell. 10, 495-507) and boiled for 5 min. Where indicated, recombinant, purified Ubp6 or Usp14 species (540 nM) were preincubated with proteasomes for 5 min prior to the reaction. […] Unless otherwise noted, immunoblots were visualized with anti-cyclin B1 polyclonal antibodies. Polyclonal antibodies recognizing Ubp6, Rpn5, Rpn12, and ubiquitin were used as indicated. Ub-cyclin B was added in molar excess over proteasome, generally on the order of 25-fold, except for FIGS. 4C, 6A and 6B, where the substrate:enzyme ratio was increased by a factor of five.
In the experiments of FIGS. 1, 4 (except FIG. 4C), and 6C, time points were sampled after the preparation of a single reaction mixture. The zero time points therefore reflect a lag which represents the amount of time required to sample the first time point after having prepared the reaction mixture. […] In the experiments of FIGS. 2, 4C, and 6 (except 6C), each time point was carried out as an independent reaction. The zero time points were prepared in the presence of 5×LLB, and accordingly, no processing could occur before time zero.
Ubiquitination of cyclin B was carried out. Briefly, for each 30 μl reaction, Anaphase Promoting Complex (APC) was immunopurified from 600 μl of mitotic Xenopus egg extract with 12 μg of anti-Cdc27 antibodies (AF3.1, Santa Cruz Biotechnologies, Santa Cruz, Calif.) bound to 30 μl of Affiprep Protein A beads (Bio-Rad, Hercules, Calif.). Beads were washed three times with XB high salt (10 mM potassium HEPES pH 7.7, 500 mM KCl, 0.1 mM CaCl2, 1 mM MgCl2), two times with XB (same but with 100 mM KCl), and then three times into the reaction buffer (20 mM Tris pH 7.5, 100 mM KCl, 2.5 mM MgCl2, 2 mM ATP). Ubiquitination reactions contained immunoprecipitated APC on 30 μl of beads, and 30 μl of a mix containing recombinant MBP-human E1 at 200 μg/ml, histidine-tagged Ubc4 at 66 μg/ml, ubiquitin at 1.25 mg/ml, and 50 μg/ml of histidine-tagged cyclin B1/cdc2 complex expressed in baculovirus. Reactions were incubated for 90 minutes at 22° C. with agitation on a shaker at 1,000 RPM. Reaction supernatants were combined with the eluate from the wash of beads with 20 μl of reaction buffer. Reactions were either used fresh after preparation or frozen at −80° C. until use with purified proteasomes.

proteasome = target: T1, proteasome; conditions: cited from earlier work
ubp6Δ proteasomes [2] = target: T3, ubp6Δ proteasomes; test: Quantitation of proteasome inhibition by quantitative mass spectrometry of cyclin B; type: biochemical, yeast; conditions: 20-minute incubation
Experimental: A standard substrate degradation assay was carried out, and analyzed in parallel by SDS-PAGE followed by Coomassie blue staining and immunoblot with anti-cyclin B antibody. Immunoblots were used to identify and excise the cyclin B-containing regions of the Coomassie-stained gel, and the lanes were analyzed by mass spectrometry.
To quantify the extent of proteasome inhibition by Ubp6, a method of quantitative mass spectrometry was utilized. After a 20-minute incubation, approximately half of the total cyclin B was degraded by ubp6Δ proteasomes (FIG. 4C).

ubiquitin ethyl ester = conditions: cited from earlier work
[3] = target: T4, RP purified from a ubp6Δ mutant (Saccharomyces cerevisiae, UniProt P43588); test: Processing of ub-cyclin B by regulatory particle (RP); type: biochemical, yeast; conditions: RP 135 nM, four-fold molar excess of Ubp6 species
T4 construct: TEV-ProA (TEV site + protein A), chromosomally integrated (C); made in house
Experimental: FIGS. 6A and 6B depict the processing of ub-cyclin B by RP (ubp6Δ) in the presence or absence of purified Ubp6. Reactions were visualized by immunoblotting with anti-cyclin B antibody or anti-ubiquitin antibody, as indicated.
FIG. 12 is an illustration depicting the RP-mediated disassembly of Ub-cyclin B conjugates by Ubp6. Proteasome regulatory particle (135 nM) purified from a ubp6Δ strain was combined with a four-fold molar excess of Ubp6, Ubp6-ublΔ, or Ubp6-C118A, and Ub-Cyclin B, and incubated for the indicated times. Reactions were visualized by immunoblot with anti-ubiquitin antibody. *represents a non-ubiquitin immunoreactive band.
A previously described procedure for purification of the proteasome (Leggett, et al. (2002). Multiple associated proteins regulate proteasome structure and function. Mol. Cell. 10, 495-507) was modified by adding 1 mM ATP and 5 mM MgCl2 to all purification buffers, and by washing resins with 100 bed vol. of buffer containing 50 mM NaCl, as opposed to 50 bed vol. of buffer containing 100 mM NaCl. RP was purified in the presence of ATP and MgCl2 as described (Leggett et al., 2002).
Proteasomes (135 nM) were incubated with ub-cyclin Bin the presence of 1 mM ATP and buffer (50 mM Tris [pH 7.51, 1 mM EDTA, 5 mM MgCl2) for the indicated times. […]

Ub-cyclin B = target: T5, Ub-cyclin B (Homo sapiens, UniProt P14635); test: Ub-cyclin B binding assay (GST pull down); conditions: GST resin pull down, immunoblot
T5 construct: histidine tag; made in house; host or cells: cyclin B1/cdc2: baculovirus expression; GST-Ubp6: pGEX-4T-1 (bacterial)
T5 sequence (P14635 whole entry, other chains not shown): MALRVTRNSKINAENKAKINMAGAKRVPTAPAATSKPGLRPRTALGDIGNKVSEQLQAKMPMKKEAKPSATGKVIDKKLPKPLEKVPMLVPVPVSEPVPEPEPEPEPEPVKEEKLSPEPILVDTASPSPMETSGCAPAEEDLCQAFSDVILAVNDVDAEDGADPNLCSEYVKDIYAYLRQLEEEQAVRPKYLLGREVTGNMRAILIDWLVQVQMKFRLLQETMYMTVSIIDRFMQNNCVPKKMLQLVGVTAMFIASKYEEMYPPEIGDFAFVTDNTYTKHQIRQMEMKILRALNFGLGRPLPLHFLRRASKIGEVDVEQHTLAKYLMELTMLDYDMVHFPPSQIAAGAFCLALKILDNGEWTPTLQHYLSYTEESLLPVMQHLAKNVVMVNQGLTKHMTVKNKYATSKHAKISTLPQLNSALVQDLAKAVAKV
T5 sequence (P06493 whole entry partner, other chains not shown): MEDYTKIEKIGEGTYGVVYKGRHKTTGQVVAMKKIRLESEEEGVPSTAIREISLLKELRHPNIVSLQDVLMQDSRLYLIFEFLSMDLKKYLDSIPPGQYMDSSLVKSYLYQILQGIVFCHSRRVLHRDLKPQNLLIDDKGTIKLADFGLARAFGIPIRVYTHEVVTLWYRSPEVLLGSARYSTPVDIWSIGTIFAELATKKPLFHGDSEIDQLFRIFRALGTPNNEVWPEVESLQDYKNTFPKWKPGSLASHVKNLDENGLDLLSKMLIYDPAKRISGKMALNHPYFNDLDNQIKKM

Row | Molecule | suppression of cyclin B degradation by human proteasomes (26S human proteasomes) | inhibition of cyclin B degradation (ubp6Δ proteasomes [1]) | activation of Ubp6's catalytic activity on binding to the proteasome (proteasome) | inhibition of degradation (cyclin B) (ubp6Δ proteasomes [2]) | KM of Ubp6 for ubiquitin ethyl ester (ubiquitin ethyl ester) | processing of ub-cyclin B conjugates by RP [3] | binding of Ub-cyclin B conjugates (Ub-cyclin B)
1 | Usp14: human homolog of Ubp6, purified recombinant deubiquitinating enzyme | suppression of cyclin B degradation | largely recapitulated the effects of Ubp6 | – | – | – | – | –
2 | Ubp6: yeast proteasomal deubiquitinating enzyme, endogenous proteasome inhibitor; purified recombinant protein (protein) MSGETFEFNIRHSGKVYPITLSTDATSADLKSKAEELTQVPSARQKYMVKGGLSGEESIKIYPLIKPGSTVMLLGTPDANLISKPAKKNNFIEDLAPEQQVQQFAQLPVGFKNMGNTCYLNATLQALYRVNDLRDMILNYNPSQGVSNSGAQDEEIHKQIVIEMKRCFENLQNKSFKSVLPIVLLNTLRKCYPQFAERDSQGGFYKQQDAEELFTQLFHSMSIVFGDKFSEDFRIQFKTTIKDTANDNDITVKENESDSKLQCHISGTTNFMRNGLLEGLNEKIEKRSDLTGANSIYSVEKKISRLPKFLTVQYVRFFWKRSTNKKSKILRKVVFPFQLDVADMLTPEYAAEKVKVRDELRKVEKEKNEKEREIKRRKFDPSSSENVMTPREQYETQVALNESEKDQWLEEYKKHFPPNLEKGENPSCVYNLIGVITHQGANSESGHYQAFIRDELDENKWYKFNDDKVSVVEKEKIESLAGGGESDSALILMYKGFGL | – | marked inhibition of cyclin B degradation | over 300 fold | approximately 70% | so high as to be unmeasurable | chain shortening | –
3 | GST-Ubp6: GST fusion of Ubp6 on resin (protein, left off: a dimerising Fc or GST, GST fusion of Ubp6 on resin) MSGETFEFNIRHSGKVYPITLSTDATSADLKSKAEELTQVPSARQKYMVKGGLSGEESIKIYPLIKPGSTVMLLGTPDANLISKPAKKNNFIEDLAPEQQVQQFAQLPVGFKNMGNTCYLNATLQALYRVNDLRDMILNYNPSQGVSNSGAQDEEIHKQIVIEMKRCFENLQNKSFKSVLPIVLLNTLRKCYPQFAERDSQGGFYKQQDAEELFTQLFHSMSIVFGDKFSEDFRIQFKTTIKDTANDNDITVKENESDSKLQCHISGTTNFMRNGLLEGLNEKIEKRSDLTGANSIYSVEKKISRLPKFLTVQYVRFFWKRSTNKKSKILRKVVFPFQLDVADMLTPEYAAEKVKVRDELRKVEKEKNEKEREIKRRKFDPSSSENVMTPREQYETQVALNESEKDQWLEEYKKHFPPNLEKGENPSCVYNLIGVITHQGANSESGHYQAFIRDELDENKWYKFNDDKVSVVEKEKIESLAGGGESDSALILMYKGFGL | – | – | – | – | – | – | No detectable binding
